Measured values from patent publication US12065471B2, “B*44 restricted peptides for use in immunotherapy against cancers and related methods” (Immatics Biotechnologies GmbH, priority 2018, dated 2024).

target: HLA-B*44:05 (Homo sapiens, UniProt P01889, A223V/A65T/A93T/A95T/D201E/D98Y/E176V/E187L/E204Q/E69K/G107R/H137Y/K202T/L105A/L119I/N104T/N87E/Q56L/Q94N/R106L/R155S/R180D/S101N/S121R/S35A/S48T/T118I/V36M/W191S/Y91S); experiment: MHC binding assay (UV-ligand exchange, β2m ELISA, peptide exchange yield); conditions: binding to HLA-B*44:05
How it was run: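 Peptide–HLA complexes formed by UV-ligand exchange of a UV-cleavable peptide for the test peptide. Exchange yield measured by β2m ELISA: complexes diluted 100-fold and captured on streptavidin, detected with HRP anti-β2m and TMB, read at 450 nm. Quantified against refolded HLA-A*02:01/MLA-001 monomer standards, 15-500 ng/ml.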

Row | Peptide exchange (MHC class I binding score, peptide exchange yield) | Substance
1 | +++ (>50 = +++) | 250 (AELDHLASL; listed as Homo sapiens) [compound 250]
2 | ++ (>20% = ++) | 140 (TEHSGIYSC; listed as Homo sapiens) [compound 140]
3 | ++ (>20% = ++) | 217 (EVEVGDRTDW; listed as Homo sapiens) [compound 217]
4 | ++++ (>75% = ++++) | 430 (RELARVVTL; listed as Homo sapiens) [compound 430]
5 | +++ (>50 = +++) | 237 (QEIGQKTSV; listed as Homo sapiens) [compound 237]
6 | +++ (>50 = +++) | 254 (QEVAGYVLI; listed as Homo sapiens) [compound 254]
7 | ++ (>20% = ++) | 389 (DEQRRQNVAY; listed as Homo sapiens) [compound 389]
8 | ++++ (>75% = ++++) | 371 (NEIGQELTGQEW; listed as Homo sapiens) [compound 371]
9 | ++ (>20% = ++) | 296 (AETIFIVRL; listed as Homo sapiens) [compound 296]
10 | +++ (>50 = +++) | 14 (EMPGGPVW; listed as Homo sapiens) [compound 14]
11 | +++ (>50 = +++) | 315 (MEQQSQEY; listed as Homo sapiens) [compound 315]
12 | +++ (>50 = +++) | 419 (SELSLLSLY; listed as Homo sapiens) [compound 419]
13 | +++ (>50 = +++) | 451 (REYEDGPLSL; listed as Homo sapiens) [compound 451]
14 | +++ (>50 = +++) | 134 (IEIKDRLQL; listed as Homo sapiens) [compound 134]
15 | +++ (>50 = +++) | 231 (AEALVDGKWQEF; listed as Homo sapiens) [compound 231]
16 | ++++ (>75% = ++++) | 294 (EEWEWIQKL; listed as Homo sapiens) [compound 294]
17 | +++ (>50 = +++) | 357 (AELMDKPLTF; listed as Homo sapiens) [compound 357]
18 | +++ (>50 = +++) | 374 (NEAEWQEIL; listed as Homo sapiens) [compound 374]
19 | + (>10% = +) | 281 (HEIPQESL; listed as Homo sapiens) [compound 281]
20 | +++ (>50 = +++) | 206 (SEDPEKYYL; listed as Homo sapiens) [compound 206]
21 | +++ (>50 = +++) | 248 (KESQLPTVMDF; listed as Homo sapiens) [compound 248]
22 | ++ (>20% = ++) | 228 (LEYEAPKLY; listed as Homo sapiens) [compound 228]
23 | +++ (>50 = +++) | 284 (SQYPHTHTF; listed as Homo sapiens) [compound 284]

Row | Peptide exchange (MHC class I binding score, peptide exchange yield) | Substance
24 | +++ (>50 = +++) | 293 (QEDEQLLLRF; listed as Homo sapiens) [compound 293]
25 | +++ (>50 = +++) | 188 (AEFVPKADLL; listed as Homo sapiens) [compound 188]
26 | +++ (>50 = +++) | 198 (REEEANVVL; listed as Homo sapiens) [compound 198]
27 | + (>10% = +) | 227 (ALTEDSIDDTF; listed as Homo sapiens) [compound 227]
28 | +++ (>50 = +++) | 425 (KEVDPASNTY; listed as Homo sapiens) [compound 425]
29 | +++ (>50 = +++) | 327 (SEQHSLPVF; listed as Homo sapiens) [compound 327]
30 | +++ (>50 = +++) | 199 (AELPENLKALF; listed as Homo sapiens) [compound 199]
31 | ++++ (>75% = ++++) | 196 (TELEVKIRDW; listed as Homo sapiens) [compound 196]
32 | +++ (>50 = +++) | 125 (LEVLHQGQW; listed as Homo sapiens) [compound 125]
33 | ++++ (>75% = ++++) | 102 (TELADLDAAW; listed as Homo sapiens) [compound 102]
34 | +++ (>50 = +++) | 456 (SESPIRISV; listed as Homo sapiens) [compound 456]
35 | ++++ (>75% = ++++) | 307 (YEQLLKVVTW; listed as Homo sapiens) [compound 307]
36 | +++ (>50 = +++) | 409 (QEAKPRATW; listed as Homo sapiens) [compound 409]
37 | +++ (>50 = +++) | 443 (EEYAGQITL; listed as Homo sapiens) [compound 443]
38 | +++ (>50 = +++) | 105 (EEIFKTLNY; listed as Homo sapiens) [compound 105]
39 | ++ (>20% = ++) | 1 (KEVDPASNTYTL; listed as Homo sapiens) [compound 1]
40 | +++ (>50 = +++) | 329 (SEPQITVNF; listed as Homo sapiens) [compound 329]
41 | +++ (>50 = +++) | 418 (GEPRKLLTQDW; listed as Homo sapiens) [compound 418]
42 | ++++ (>75% = ++++) | 241 (QELLDIANYL; listed as Homo sapiens) [compound 241]
43 | +++ (>50 = +++) | 433 (AEEGPSVPKIY; listed as Homo sapiens) [compound 433]
44 | +++ (>50 = +++) | 128 (TELTEARVQVW; listed as Homo sapiens) [compound 128]
45 | ++ (>20% = ++) | 303 (GEDAHLTQY; listed as Homo sapiens) [compound 303]
46 | ++++ (>75% = ++++) | 142 (QELFLHPVL; listed as Homo sapiens) [compound 142]

Row | Peptide exchange (MHC class I binding score, peptide exchange yield) | Substance
47 | +++ (>50 = +++) | 397 (EECGKAFSVF; listed as Homo sapiens) [compound 397]
48 | +++ (>50 = +++) | 310 (FELECPVKY; listed as Homo sapiens) [compound 310]
49 | +++ (>50 = +++) | 312 (KEWEREKAVSL; listed as Homo sapiens) [compound 312]
50 | + (>10% = +) | 306 (RRHPSFKRF; listed as Homo sapiens) [compound 306]
51 | +++ (>50 = +++) | 194 (TEGDVLNYIF; listed as Homo sapiens) [compound 194]
52 | +++ (>50 = +++) | 392 (TEVSVLLLTF; listed as Homo sapiens) [compound 392]
53 | +++ (>50 = +++) | 380 (EECGKAFRVF; listed as Homo sapiens) [compound 380]
54 | +++ (>50 = +++) | 112 (AEIEADRSYQH; listed as Homo sapiens) [compound 112]
55 | ++++ (>75% = ++++) | 185 (TEANVQALF; listed as Homo sapiens) [compound 185]
56 | +++ (>50 = +++) | 450 (REIENGNSF; listed as Homo sapiens) [compound 450]
57 | +++ (>50 = +++) | 143 (HEIIIRSHW; listed as Homo sapiens) [compound 143]
58 | ++ (>20% = ++) | 171 (WEVVHTVF; listed as Homo sapiens) [compound 171]
59 | ++ (>20% = ++) | 81 (GEKATMQNL; listed as Homo sapiens) [compound 81]
60 | ++ (>20% = ++) | 213 (DEDLFHKL; listed as Homo sapiens) [compound 213]
61 | +++ (>50 = +++) | 148 (KESDAGRYY; listed as Homo sapiens) [compound 148]
62 | +++ (>50 = +++) | 167 (AETENRYCV; listed as Homo sapiens) [compound 167]
63 | +++ (>50 = +++) | 424 (EEHVYESIIRW; listed as Homo sapiens) [compound 424]
64 | +++ (>50 = +++) | 152 (HENLIEDF; listed as Homo sapiens) [compound 152]
65 | +++ (>50 = +++) | 299 (AEVQIARKL; listed as Homo sapiens) [compound 299]
66 | +++ (>50 = +++) | 352 (QEDELVKIRKY; listed as Homo sapiens) [compound 352]
67 | ++++ (>75% = ++++) | 132 (AESFTSGRHYW; listed as Homo sapiens) [compound 132]
